Patent US20190178879A1
Each block holds one substance with its values, some of them ahead of it.

Columns and labels:
[1] = target: human CD3 cell surface antigen on PBMCs (human) (UniProt P07766); assay: flow cytometry on human PBMCs, detected with anti-PEG/HL647 label
[2] = target: anti-pHIS/CD3 TAC (tetrameric antibody complex of anti-pHIS antibody and anti-CD3 antibody); assay: cell-based or functional assay
[3] = target: anti-pHIS antibody (clone J099B12, Biolegend), fluorescently labeled with AlexaFluor 488; assay: flow cytometry competition, release format: soluble pHIS added after anti-pHIS antibody was bound to pHIS-conjugated particles
[4] = target: anti-pHIS antibody (clone J099B12, Biolegend), fluorescently labeled with AlexaFluor 488; assay: flow cytometry competition, inhibition format: soluble pHIS preincubated with anti-pHIS antibody before pHIS-conjugated particles
[5] = target: human CD3 cell surface antigen on PBMCs (human) (UniProt P07766); assay: flow cytometry on human PBMCs, detected with rat anti-mouse PE
[6] = target: human CD45 on PBMCs (human) (UniProt P08575); assay: flow cytometry on human PBMCs, detected with anti-PEG/HL647 label
UniProt P08575, sequence (P08575 26-1306): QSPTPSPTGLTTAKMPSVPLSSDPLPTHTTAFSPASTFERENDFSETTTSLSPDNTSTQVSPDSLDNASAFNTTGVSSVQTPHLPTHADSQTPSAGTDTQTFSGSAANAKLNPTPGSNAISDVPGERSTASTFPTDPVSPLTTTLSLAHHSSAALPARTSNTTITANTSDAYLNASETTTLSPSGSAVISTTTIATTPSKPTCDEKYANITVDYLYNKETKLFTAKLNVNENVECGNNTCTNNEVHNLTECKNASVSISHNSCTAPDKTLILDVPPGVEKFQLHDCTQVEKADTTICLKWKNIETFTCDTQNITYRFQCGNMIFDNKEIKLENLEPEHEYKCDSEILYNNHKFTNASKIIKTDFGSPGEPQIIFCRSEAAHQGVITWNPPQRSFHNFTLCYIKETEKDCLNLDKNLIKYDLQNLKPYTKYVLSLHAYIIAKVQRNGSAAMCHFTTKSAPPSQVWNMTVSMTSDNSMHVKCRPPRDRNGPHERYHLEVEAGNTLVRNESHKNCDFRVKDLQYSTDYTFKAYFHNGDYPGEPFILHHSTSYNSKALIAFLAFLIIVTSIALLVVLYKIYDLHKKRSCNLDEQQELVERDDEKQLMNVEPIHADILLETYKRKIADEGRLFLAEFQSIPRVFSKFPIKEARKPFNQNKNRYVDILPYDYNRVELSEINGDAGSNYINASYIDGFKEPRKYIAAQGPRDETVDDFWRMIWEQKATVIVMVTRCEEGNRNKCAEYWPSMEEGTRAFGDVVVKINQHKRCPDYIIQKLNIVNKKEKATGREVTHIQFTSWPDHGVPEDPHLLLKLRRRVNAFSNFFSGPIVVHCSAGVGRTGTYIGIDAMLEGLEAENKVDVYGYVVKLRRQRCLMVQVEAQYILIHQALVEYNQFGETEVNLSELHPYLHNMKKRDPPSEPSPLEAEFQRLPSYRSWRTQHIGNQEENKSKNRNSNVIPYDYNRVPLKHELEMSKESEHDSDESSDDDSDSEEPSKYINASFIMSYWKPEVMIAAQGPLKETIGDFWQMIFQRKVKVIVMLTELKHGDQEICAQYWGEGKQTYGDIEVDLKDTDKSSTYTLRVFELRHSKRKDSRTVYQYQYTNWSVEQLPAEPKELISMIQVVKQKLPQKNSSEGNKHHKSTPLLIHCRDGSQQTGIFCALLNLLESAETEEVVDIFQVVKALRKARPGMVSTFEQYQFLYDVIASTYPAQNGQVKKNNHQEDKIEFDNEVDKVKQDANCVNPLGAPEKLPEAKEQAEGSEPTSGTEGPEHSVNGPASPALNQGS

UniProt P07766, sequence (P07766 23-207): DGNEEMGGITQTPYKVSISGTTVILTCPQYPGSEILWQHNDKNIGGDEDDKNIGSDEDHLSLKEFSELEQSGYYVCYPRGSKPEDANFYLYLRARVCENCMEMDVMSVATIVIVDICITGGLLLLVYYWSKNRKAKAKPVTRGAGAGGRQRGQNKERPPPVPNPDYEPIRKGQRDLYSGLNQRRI

percent of cells with a positive signal [1]: 83.4%
Substance: CD3 antibody (clone UCHT1) PEGylated with 30 kDa PEG

% Rel (release efficiency), average, n = 2 [2]: 69.3%
particle release efficiency [2]: 72%
IC50 [3]: 237 µM
IC50 [4]: 1.9 µM
Substance: soluble pHIS (polyhistidine) peptide, 0.84 kDa

percent of lymphocytes with a CD3+ signal [5]: 87.8%
Substance: CD3 antibody (clone UCHT1)

percent of cells with a positive signal [6]: > 96%
Substance: CD45 antibody (clone MEM-28) PEGylated with 30 kDa PEG
